Stoichiometry N data for 1 substance are collected here from publication PMC4127255.

The target of experiment [1] is acetylcholine-binding protein from Aplysia californica (Ac-AChBP) (Aplysia californica). In words: SEC; […]; 50 mM NaCl, 50 mM Tris pH 8.0, 0.5 mL/min, […]. A general note: In gel filtration, larger molecules generally elute earlier.
The target is the same in experiment [2]. In words: non-reduced SDS-PAGE.

For the substance “acetylcholine-binding protein from Aplysia californica (Ac-AChBP) (natural protein)”, the stoichiometry N in experiment [1] and in experiment [2] was 5 in each case.
